The source of these data is publication PMC8476121 (2021).

The test deals with NB88. The test can be described thus: SPR.

B1: CaSR ECD (extracellular domain of human calcium-sensing receptor) (domain or fragment)
chain: YGPDQRAQKKGDIILGGLFPIHFGVAAKDQDLKSRPESVECIRYNFRGFRWLQAMIFAIEEINSSPALLPNLTLGYRIFDTCNTVSKALEATLSFVAQNKIDSLNLDEFCNCSEHIPSTIAVVGATGSGVSTAVANLLGLFYIPQVSYASSSRLLSNKNQFKSFLRTIPNDEHQATAMADIIEYFRWNWVGTIAADDDYGRPGIEKFREEAEERDICIDFSELISQYSDEEEIQHVVEVIQNSTAKVIVVFSSGPDLEPLIKEIVRRNITGKIWLASEAWASSSLIAMPQYFHVVGGTIGFALKAGQIPGFREFLKKVHPRKSVHNGFAKEFWEETFNCHLQEGAKGPLPVDTFLRGHEESGDRFSNSSTAFRPLCTGDENISSVETPYIDYTHLRISYNVYLAVYSIAHALQDIYTCLPGRGLFTNGSCADIKKVEAWQVLKHLRHLNFTNNMGEQVTFDECGDLVGNYSIINWHLSPEDGSIVFKEVGYYNVYAKKGERLFINEEKILWSGFSREVPFSNCSRDCLAGTRKGIIEGEPTCCFECVECPDGEYSDETDASACNKCPDDFWSNENHTSCIAKEIEFLS
With B1, the Kd was 3.9 nM.
